Target: T1, full-length PTX3 (#1826-TS; R&D Systems) (UniProt P26022 18-381)
T1 construct: bought protein; source: bought: R&D Systems (#1826-TS)
Assay: SPR; BIAcore 3000; full-length PTX3 amine-coupled to a CM5 chip (4000-6000 RU); N-terminal CD44 as analyte; PBS pH 7.2, 10 μl/min, 1 min association, 2 min dissociation; 1:1 Langmuir model
Details: both partners purified

T1 sequence (P26022 18-381): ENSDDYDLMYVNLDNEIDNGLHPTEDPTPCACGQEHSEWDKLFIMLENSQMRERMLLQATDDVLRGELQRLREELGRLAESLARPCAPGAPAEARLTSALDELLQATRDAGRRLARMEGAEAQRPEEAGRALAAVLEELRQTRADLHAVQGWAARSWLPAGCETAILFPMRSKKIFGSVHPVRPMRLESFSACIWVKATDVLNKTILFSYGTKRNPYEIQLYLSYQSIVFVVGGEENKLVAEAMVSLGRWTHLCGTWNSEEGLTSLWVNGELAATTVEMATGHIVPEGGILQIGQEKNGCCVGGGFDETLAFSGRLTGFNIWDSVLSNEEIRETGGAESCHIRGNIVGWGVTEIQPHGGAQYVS

B1: N-terminal of CD44 (#CD44-3961H; Creative Biomart) (domain or fragment)
chain: QIDLNITCRFAGVFHVEKNGRYSISRTEAADLCKAFNSTLPTMAQMEKALSIGFETCRYGFIEGHVVIPRIHPNSICAANNTGVYILTSNTSQYDTYCFNASAPPEEDCTSVTDLPNAFDGPITITIVNRDGTRYVQKGEYRTNPEDIYPSNPTDDDV
modifications: Bought protein with limits not printed. Limits are the conventional N-terminal hyaluronan-binding domain (Link domain plus flanks, mature start 21 to 178). This range covers the predicted PTX3 …
- Kd: 21 nM
- koff: 2.43e-06 s⁻¹
- kon: 130 M⁻¹ s⁻¹
